Experimental data published in patent US12214059B2, “Cleavable radioligands for targeting cell surface receptors and uses thereof” (Full-Life Te[…] Limited, priority 2021, dated 2025).

Assays:
[1] = biological target: T1, PSMA (Homo sapiens, UniProt Q04609); assay: Cell-based radioligand competitive binding assay (^125I-C-8, LNCaP cells); settings: C-1 = 1.00
T1 construct: host or cells: LNCaP cells
Procedure: The culture medium was replaced with fresh medium every 2-3 days. Experiments were performed with cells at 70-80% confluence.
The final volume in each well was maintained at 200 μL and insufficient volume was adjusted by the binding buffer.

[2] = system: LNCap tumor-bearing mice; assay: Biodistribution study in CB-17 SCID mice bearing LNCap tumor; assay type: in vivo, mouse
Procedure: Biodistribution Study in CB-17 SCID Mice Bearing LNCap Tumor
All animal care and experimental procedure were performed by following the animal protocols approved by the ethics committee of China Institute of Radiation Protection. The CB-17 SCID mice (Charles River, Beijing) were utilized for these studies. […] These mice received subcutaneous rear flank injections of approximately 4×10^6 LNCap cells suspended in 200 μL of phosphate-buffered saline (PBS) and Matrigel (Corning) (1/1).

[3] = system: PC-3 PIP tumor-bearing mice; assay: Biodistribution study in SCID mice bearing PC3-PIP tumor; assay type: in vivo, mouse; settings: for T/K at 4 h (tumor uptake/kidney uptake) / T at 24 h (tumor uptake) / T/K at 24 h (tumor uptake/kidney uptake) / T at 96 h (tumor uptake) / T/K at 96 h (tumor uptake/kidney uptake): PC3 PIP tumor-bearing mice
Procedure: Biodistribution Study in SCID Mice Bearing PC3-PIP Tumor
Severe combined immunodeficient (ICR-SCID) mice from the Institute of Cancer Research (Taconic Farms, Germantown, NY) were utilized for these studies. […] These mice received bilateral subcutaneous rear flank injections of approximately 10×10^6 PC-3 PIP cells (prostate cancer cell PC-3 stably expressing human PSMA) suspended in 100 μL of 0.9% NaCl. […] The tissues and organs were weighed, counted in a PerkinElmer Wizard 3 automatic γ counter, and the percent injected dose (% ID) and % ID/g of each organ or tissue were calculated, as shown in Tables 5-24 and FIG. 1 and FIG. 2.

[4] = Ex-vivo mouse plasma stability study of ^177Lu-labeled compounds; assay type: in vitro ADME; settings: 37° C.
Procedure: Plasma Stability Study (Mouse and Human)
Mouse blood was collected via cardiac puncture of the left ventricle. Blood was placed into heparin-coated microfuge tubes and then centrifuged at 3500 rpm for 10 min to separate plasma for stability studies. Human plasma was purchased directly.
At each time point (0, 1, 2, 4, 24, 48 72 h), an aliquot of 25 μL sample was taken and mixed with 100 μL methanol containing 1% formic acid, vertex for 30-60 sec, then centrifuged at 20000 rpm for 10 min. 100 μL supernatant was collected and diluted with 40 μL H2O. 100 μL of the resulting mixture was injected to radio-HPLC for stability assessment, as shown examples FIG. 2 and FIG. 3. The best-fit T½ value of test compounds were calculated by fitting the data with linear or non-linear regression using GraphPad Prism 8.0.1.

[5] = based on the mean value of the IC50 number
[6] = * = value obtained using nonlinear regression

T1 sequence (Q04609 whole entry): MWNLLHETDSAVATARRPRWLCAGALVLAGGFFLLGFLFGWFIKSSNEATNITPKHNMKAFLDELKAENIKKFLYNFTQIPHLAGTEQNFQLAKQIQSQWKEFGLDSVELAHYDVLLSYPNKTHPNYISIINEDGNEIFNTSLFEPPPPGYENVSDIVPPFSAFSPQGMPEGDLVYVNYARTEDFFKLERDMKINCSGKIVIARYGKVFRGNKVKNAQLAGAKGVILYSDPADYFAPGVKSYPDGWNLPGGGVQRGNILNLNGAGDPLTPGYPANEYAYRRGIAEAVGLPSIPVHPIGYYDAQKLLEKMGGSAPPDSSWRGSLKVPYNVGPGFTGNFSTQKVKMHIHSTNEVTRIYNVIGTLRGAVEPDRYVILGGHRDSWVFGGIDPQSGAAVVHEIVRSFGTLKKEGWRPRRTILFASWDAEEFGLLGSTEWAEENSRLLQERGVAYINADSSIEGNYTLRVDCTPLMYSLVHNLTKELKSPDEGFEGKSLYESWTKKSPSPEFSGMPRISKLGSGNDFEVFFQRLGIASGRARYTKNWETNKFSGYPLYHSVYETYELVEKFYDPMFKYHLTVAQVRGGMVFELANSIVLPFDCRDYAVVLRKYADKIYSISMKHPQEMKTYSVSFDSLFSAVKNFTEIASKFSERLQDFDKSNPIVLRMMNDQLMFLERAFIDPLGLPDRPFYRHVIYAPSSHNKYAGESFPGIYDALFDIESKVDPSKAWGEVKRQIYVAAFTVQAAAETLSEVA

Cc1ccc(CCCC(=O)NCCCC[C@H](NC(=O)CN2CCN(CC(=O)O)CCN(CC(=O)O)CCN(CC(=O)O)CC2)C(=O)NCC2CCC(C(=O)N[C@@H](Cc3ccc4ccccc4c3)C(=O)NCCCC[C@H](NC(=O)N[C@@H](CCC(=O)O)C(=O)O)C(=O)O)CC2)cc1 (stereo partly shown) [Example C-10, DOTA-Lys(pTBA)-Trx-2NaI-eKuE]
Relative Binding Affinity ([1]; relative): 0.92
T at 24 h (tumor uptake) ([2]; LNCap tumor-bearing mice, 24 h): 46.5
T/K at 24 h (tumor uptake/kidney uptake) ([2]; LNCap tumor-bearing mice, 24 h): 0.89
T at 96 h (tumor uptake) ([2]; LNCap tumor-bearing mice, 96 h): 34.9
T/K at 96 h (tumor uptake/kidney uptake) ([2]; LNCap tumor-bearing mice, 96 h): 3.17
uptake ratio between tumor to kidney ([2]; compared to PSMA-617 (C-1)): poor uptake ratio between tumor to kidney

[HO-C20-gGlu-Lys(-ESL1-ESL1-ESL1-DOTA)-OEG-OEG-OEG-NH2CH2CH2NH—]-TMA-(-OEG-Trx-2NaI-eKuE)2 [Example I-44]
Relative Binding Affinity [1, 5]: 0.13

O=C(O)CC[C@H](NC(=O)N[C@@H](CCCCNC(=O)[C@H](Cc1ccc2ccccc2c1)NC(=O)[C@H]1CC[C@H](CNC(=O)COCCOCCNC(=O)[C@H](CCCCNC(=O)CCCOC(=O)CNC(=O)CN2CCN(CC(=O)O)CCN(CC(=O)O)CCN(CC(=O)O)CC2)NC(=O)[C@H](CCCCNC(=O)COCCOCCNC(=O)COCCOCCNC(=O)[C@H](CCC(=O)O)NC(=O)CCCc2ccc(I)cc2)NC(=O)COCCOCCNC(=O)COCCOCCNC(=O)[C@H](CCC(=O)O)NC(=O)CCCc2ccc(I)cc2)CC1)C(=O)O)C(=O)O [Example I-7, 4pIBA-Glu-OEG-OEG-Lys(-OEG-OEG-Glu-4pIBA)-Lys(-ESL1-DOTA)-OEG-Trx-2NaI-eKuE]
T/K at 4 h (tumor uptake/kidney uptake) [3]: 0.7
T at 24 h (tumor uptake) [3]: 16.7
T/K at 24 h (tumor uptake/kidney uptake) [3]: 0.9
T at 96 h (tumor uptake) [3]: 2.6
T/K at 96 h (tumor uptake/kidney uptake) [3]: 1.4
Relative Binding Affinity [1, 5]: 0.56
Relative Binding Affinity ([1]; relative): 0.54

O=C(O)CC[C@H](NC(=O)N[C@@H](CCCCNC(=O)[C@H](Cc1ccc2ccccc2c1)NC(=O)[C@H]1CC[C@H](CNC(=O)[C@H](CCCCNC(=O)CCCOC(=O)CNC(=O)CN2CCN(CC(=O)O)CCN(CC(=O)O)CCN(CC(=O)O)CC2)NC(=O)[C@H](CCC(=O)O)NC(=O)CCCc2ccc(I)cc2)CC1)C(=O)O)C(=O)O [Example I-3, 4pIBA-Glu-Lys(-ESL1-DOTA)-Trx-2NaI-eKuE]
% Remaining 0 min [4]: 100%
% Remaining 1 h [4]: 88.6%
% Remaining 4 h [4]: 54.8%
% Remaining 24 h [4]: 13.0%
% Remaining 48 h [4]: 9.30%
% Remaining 72 h [4]: 3.99%
T½ (h) [4, 6]: 4.9* h
T/K at 4 h (tumor uptake/kidney uptake) [3]: 0.3
T at 24 h (tumor uptake) [3]: 13.9
T/K at 24 h (tumor uptake/kidney uptake) [3]: 0.8
T at 96 h (tumor uptake) [3]: 6.3
T/K at 96 h (tumor uptake/kidney uptake) [3]: 4.0
Relative Binding Affinity [1, 5]: 1.30
Relative Binding Affinity ([1]; relative): 1.30

HO-C18-gGlu-OEG-OEG-OEG-Lys(DOTA)-OEG-Trx-2NaI-eKuE [Example C-6, reference compound]
Relative Binding Affinity [1, 5]: 0.05
Relative Binding Affinity ([1]; relative): 0.05

DOTA-gGlu(-eLys-4pIBA)-Trx-2NaI-eKuE [Example C-9, reference compound]
Relative Binding Affinity [1, 5]: 0.92

O=C(O)CC[C@H](NC(=O)N[C@@H](CCCCNC(=O)[C@H](Cc1ccc2ccccc2c1)NC(=O)[C@H]1CC[C@H](CNC(=O)[C@H](CCCCNC(=O)CN2CCN(CC(=O)O)CCN(CC(=O)O)CCN(CC(=O)O)CC2)NC(=O)CCCOC(=O)CNC(=O)[C@H](CCC(=O)O)NC(=O)CCCc2ccc(I)cc2)CC1)C(=O)O)C(=O)O [Example I-2, 4pIBA-Glu-ESL1-Lys(DOTA)-Trx-2NaI-eKuE]
% Remaining 0 min [4]: 100%
% Remaining 1 h [4]: 95.6%
% Remaining 4 h [4]: 93.2%
% Remaining 24 h [4]: 76.5%
% Remaining 48 h [4]: 67.5%
% Remaining 72 h [4]: 57.3%
T½ [4, 6]: 80.4 h
T/K at 4 h (tumor uptake/kidney uptake) [3]: 0.6
T at 24 h (tumor uptake) [3]: 32.4
T/K at 24 h (tumor uptake/kidney uptake) [3]: 5.0
T at 96 h (tumor uptake) [3]: 9.8
T/K at 96 h (tumor uptake/kidney uptake) [3]: 10.1
uptake ratio between tumor to kidney ([3]; mice bearing PC3-PIP tumor, compared to HTK01169 (C-2)): improved uptake ratio between tumor to kidney
Relative Binding Affinity [1, 5]: 1.59
Relative Binding Affinity ([1]; relative): 0.75

O=C(O)CC[C@H](NC(=O)N[C@@H](CCCCNC(=O)[C@H](Cc1ccc2ccccc2c1)NC(=O)[C@H]1CC[C@H](CNC(=O)[C@H](CCCCNC(=O)CN2CCN(CC(=O)O)CCN(CC(=O)O)CCN(CC(=O)O)CC2)NC(=O)[C@H](CCC(=O)O)NC(=O)CCCc2ccc(I)cc2)CC1)C(=O)O)C(=O)O [Example C-2, 4pIBA-Glu-Lys(DOTA)-Trx-2NaI-eKuE, reference compound]
% Remaining 0 min [4]: 100%
% Remaining 1 h [4]: 100%
% Remaining 4 h [4]: 100%
% Remaining 24 h [4]: 100%
% Remaining 48 h [4]: 100%
% Remaining 72 h [4]: 100%
T½ (h) [4, 6]: Stable
T/K at 4 h (tumor uptake/kidney uptake) [3]: 0.3
T at 24 h (tumor uptake) [3]: 41.1
T/K at 24 h (tumor uptake/kidney uptake) [3]: 1.0
T at 96 h (tumor uptake) [3]: 20.0
T/K at 96 h (tumor uptake/kidney uptake) [3]: 3.7
uptake ratio between tumor to kidney ([3]; compared to PSMA-617 (C-1)): poor uptake ratio between tumor to kidney
Relative Binding Affinity [1, 5]: 1.78
Relative Binding Affinity ([1]; relative): 1.78

O=C(O)CC[C@H](NC(=O)N[C@@H](CCCCNC(=O)[C@H](Cc1ccc2ccccc2c1)NC(=O)[C@H]1CC[C@H](CNC(=O)[C@H](CCCCNC(=O)CCC(=O)NCCSSCCNC(=O)CN2CCN(CC(=O)O)CCN(CC(=O)O)CCN(CC(=O)O)CC2)NC(=O)[C@H](CCC(=O)O)NC(=O)CCCc2ccc(I)cc2)CC1)C(=O)O)C(=O)O [Example I-4, 4pIBA-Glu-Lys(-SSL1-DOTA)-Trx-2NaI-eKuE]
T/K at 4 h (tumor uptake/kidney uptake) [3]: 0.1
T at 24 h (tumor uptake) [3]: 0.79
T/K at 24 h (tumor uptake/kidney uptake) [3]: 0.2
T at 96 h (tumor uptake) [3]: 0.3
T/K at 96 h (tumor uptake/kidney uptake) [3]: 1.2
Relative Binding Affinity [1, 5]: 0.95
Relative Binding Affinity ([1]; relative): 0.95

(HO-C18-gGlu-Lys(-OEG-DOTA)-OEG-OEG-OEG-NH2CH2CH2NH-TMA(-OEG-Trx-2NaI-eKuE)2 [Example C-7, reference compound]
Relative Binding Affinity [1, 5]: 0.14
Relative Binding Affinity ([1]; relative): 0.14

HO-C18-gGlu-OEG-OEG-Gly-5hPA-Lys(DOTA)-OEG-Trx-2NaI-eKuE [Example I-49]
Relative Binding Affinity [1, 5]: 0.09
Relative Binding Affinity ([1]; relative): 0.09

O=C(O)CCCCCCCCCCCCCCCCC(=O)N[C@@H](CCC(=O)NCCOCCOCC(=O)NCCOCCOCC(=O)N[C@@H](CCCCNC(=O)CCCOC(=O)CNC(=O)CNC(=O)CNC(=O)CNC(=O)CN1CCN(CC(=O)O)CCN(CC(=O)O)CCN(CC(=O)O)CC1)C(=O)NCCOCCOCC(=O)NC[C@H]1CC[C@H](C(=O)N[C@@H](Cc2ccc3ccccc3c2)C(=O)NCCCC[C@H](NC(=O)N[C@@H](CCC(=O)O)C(=O)O)C(=O)O)CC1)C(=O)O [Example I-46, HO-C18-gGlu-OEG-OEG-Lys(-ESL1-Gly-Gly-Gly-DOTA)-OEG-Trx-2NaI-eKuE]
% Remaining 0 min [4]: 100%
% Remaining 1 h [4]: 95.1%
% Remaining 4 h [4]: 93.5%
% Remaining 24 h [4]: 81.9%
% Remaining 48 h [4]: 70.6%
% Remaining 72 h [4]: 55.9%
T½ (h) [4, 6]: 102* h
